The text below walks through data of PMC11192315 (PLOS Pathogens, 2024).

First the molecules themselves.
B1: JE-5C Fab (Fab, V domains shown)
VH: EVQLLESGGGLVQPGGSLRLSCAASGVTVTSNYMSWVRQAPGKGLEWVSVIYSGGSTYYADSVKGRFTISRHNSKNTLYLQMNSLRAEDTAVYYCARDLREAGGMDVWGQGTTVTVSS
VL: DIVMTQSPSSLSASVGDRVTITCQASQDINNYLNWYQQKPGKAPKLLIYDASNLETGVPSRFSGSGSGTDFTFTISSLQPEDIATYYCQQFDNLPWTFGQGTKVEIR
B2: JM-1A Fab (Fab, V domains shown)
VH: QVQLQQSGPGLVKPSGTLSLTCAVSGASISSGDWWSWVRQSPGRGLEWIGGIFHSGTTNYSPSLKSRVTMSVDQPKNQFSLHLTSVTAADTAVYYCARMRGIFDYWGQGTLVTVSS
VL: DIQLTQSPSSLSVSVGDRVTITCRASQAISNSLAWYQQKPGKAPKLLLYAASTLESGVPSRFSGSGSGTDFTLTISSLQPEDFATYYCQHYYSTPFFGGGTKVEIK
B3: JH-8B (human IgG mAb) (antibody, V domains shown)
VH: EVQLVESGGGLIQPGGSLRLSCAASGVTVSSNYMSWVRQAPGKGLEWISLIYSGGSTYYADSVKGRFTISRDNSKNTLYLQMNSLRAEDTAVYYCARELDIVGATDIWGQGTMVTVSS
VL: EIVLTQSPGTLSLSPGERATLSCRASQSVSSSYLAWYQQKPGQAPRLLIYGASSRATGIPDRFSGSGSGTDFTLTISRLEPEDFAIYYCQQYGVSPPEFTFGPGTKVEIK
B4: JL-8C (human IgG mAb) (antibody, V domains shown)
VH: QVQLVQSGAEVKKPGESLKISCKGSGYSFTSHWIGWVRQKPGKGLEWVGIIHPYDSDTRYSPSFQGLVTFSADKSSSTAYLQWSSLQASDTAIYYCARRTDQYGSHGMDVWGQGTTVTVSS
VL: QSVLTQPPSASGTPGQRVTISCSGGSSNIGGNPVNWYQQLPATAPKLLIYNNNQRPSGVSDRFSGSKSGTSASLAISGLQSVDEADYFCAAWDDSLNGVLFGGGTKLTVL
B5: JE-5C (human IgG mAb) (antibody, V domains shown)
VH: B1 VH
VL: B1 VL
B6: IY-2A (Class 4 human mAb) (antibody, V domains shown)
VH: QVQLVEWGAGLLKPSETLSLTCAVYGGSFSGYYWSWIRQPPGKGLEWIGLINHSGSTNYNPSLKSRVTISLDTSKNQFSLKLTSVTAADTAVYYCARGLGIFGVVTLSDVWGQGTTVTVSS
VL: NFMLTQPHSVSESPGKTVTISCTGSSGSIASNYVQWYQQRPGSAPTTVIYEDNQRPSGVPDRFSGSIDSSSNSASLTISGLRTEDEADYYCQSYDSGIWVFGGGTKLTVL
B7: FD-11A (Class 3 human mAb) (antibody, V domains shown)
VH: EVQLVESGGGVVQPGRSLRLSCAASGFTFSSYGMHWVRQAPGKGLEWVAVIWYDGSNKYYADSVKGRFTISRDNSKNTLYLQMNSLRAEDTAVYYCAKGPDILTGYYNYYYYGMDVWGQGTMVTVSS
VL: QSVLTQPPSVSGAPGQRVTISCTGSSSNIGAGYDVHWYQQLPGTAPKLLIYGNSNRPSGVPDRFSGSKSGTSASLAITGLQAEDEADYYCQSYDSSLSGFYVVFGGGTKLTVL
B8: C121 (Class 2 human mAb) (antibody, V domains shown)
VH: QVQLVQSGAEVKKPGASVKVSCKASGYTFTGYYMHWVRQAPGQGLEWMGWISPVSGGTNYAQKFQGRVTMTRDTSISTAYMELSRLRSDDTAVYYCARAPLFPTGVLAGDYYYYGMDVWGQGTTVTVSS
VL: QSALTQPASVSGSPGQSITISCTGTSSDVGSYNLVSWYQQHPGKAPKLMIYEGSKRPSGVSNRFSGSKSGNTASLTISGLQAEDEADYYCCSYAGSSTLVFGGGTKLTVL
B9: JM-1A (human IgG mAb) (antibody, V domains shown)
VH: B2 VH
VL: B2 VL
B10: FI-3A (Class 1 human mAb) (antibody, V domains shown)
VH: EVQLLESGGGLIQPGGSLRLSCAASGFTVSSNYMSWVRQAPGKGLEWVSVIYSGGSTYYADSVKGRFTISRDNSKNTLYLQMNSLRAEDTAVYYCARDHVRPGMNIWGQGTMVTVSS
VL: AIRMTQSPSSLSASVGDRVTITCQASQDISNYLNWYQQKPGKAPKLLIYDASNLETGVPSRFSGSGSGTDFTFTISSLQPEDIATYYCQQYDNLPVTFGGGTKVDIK

The first test deals with RBD domain (333-530) of SARS-CoV-2 WT Spike (SARS-CoV-2, UniProt P0DTC2). Kind of test: crystal structure. The settings on record: both partners purified.
Consider B1, for which the binding result is “binds”.
Regarding B2, the binding result is reported as “binds”.

The next test has as its target T1, SARS-CoV-2 RBD, wild type (Wuhan-Hu-1) (SARS-CoV-2, UniProt P0DTC2). Kind of test: cell-based or functional assay.
Conditions: not given
Turning to B3, the “IC50, neutralisation of pseudotyped lentivirus with WT spike” value came out at 9 ng/mL.

A further test addresses T1, SARS-CoV-2 RBD, wild type (Wuhan-Hu-1). Kind of test: ELISA. The conditions noted are these: both partners purified.
As for B4, the binding result is recorded as “binds”.
Consider B5, for which the binding result is “binds”.
As for B6, the binding result is given as “binds”.
As to B7, the binding result is on record as “binds”.
Still for that read-out and setting: the value for B8 was “binds”.
Take B9: the binding result was “binds”.
B10: the binding result is reported as “binds”.
